Experimental data taken from US20130078247A1 (Boehringer Ingelheim, published 2013).

T1: human Ang2 (human, UniProt O15123 19-496, limits assumed)
T1 construct: also called hAng2; human Angiopoietin2
T1 sequence (looked up): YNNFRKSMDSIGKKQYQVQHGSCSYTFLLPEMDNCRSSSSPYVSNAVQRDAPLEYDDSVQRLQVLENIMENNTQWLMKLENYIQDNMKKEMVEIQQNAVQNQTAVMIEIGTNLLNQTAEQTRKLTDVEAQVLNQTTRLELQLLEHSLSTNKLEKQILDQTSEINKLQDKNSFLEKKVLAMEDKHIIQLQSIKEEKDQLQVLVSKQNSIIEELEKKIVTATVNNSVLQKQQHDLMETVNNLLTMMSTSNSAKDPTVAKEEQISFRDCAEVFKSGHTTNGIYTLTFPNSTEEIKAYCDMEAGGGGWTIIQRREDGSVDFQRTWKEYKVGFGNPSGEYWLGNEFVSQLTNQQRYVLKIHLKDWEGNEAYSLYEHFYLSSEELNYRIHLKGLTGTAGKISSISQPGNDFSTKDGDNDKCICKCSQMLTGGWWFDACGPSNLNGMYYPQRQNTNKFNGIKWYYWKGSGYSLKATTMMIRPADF

T2: cynomolgus DLL4, full length, overexpressed on cells (cynomolgus, UniProt Q9NR61 27-685 (human entry))
T2 construct: also called CHO-cDLL4; cDLL4
T2 chain: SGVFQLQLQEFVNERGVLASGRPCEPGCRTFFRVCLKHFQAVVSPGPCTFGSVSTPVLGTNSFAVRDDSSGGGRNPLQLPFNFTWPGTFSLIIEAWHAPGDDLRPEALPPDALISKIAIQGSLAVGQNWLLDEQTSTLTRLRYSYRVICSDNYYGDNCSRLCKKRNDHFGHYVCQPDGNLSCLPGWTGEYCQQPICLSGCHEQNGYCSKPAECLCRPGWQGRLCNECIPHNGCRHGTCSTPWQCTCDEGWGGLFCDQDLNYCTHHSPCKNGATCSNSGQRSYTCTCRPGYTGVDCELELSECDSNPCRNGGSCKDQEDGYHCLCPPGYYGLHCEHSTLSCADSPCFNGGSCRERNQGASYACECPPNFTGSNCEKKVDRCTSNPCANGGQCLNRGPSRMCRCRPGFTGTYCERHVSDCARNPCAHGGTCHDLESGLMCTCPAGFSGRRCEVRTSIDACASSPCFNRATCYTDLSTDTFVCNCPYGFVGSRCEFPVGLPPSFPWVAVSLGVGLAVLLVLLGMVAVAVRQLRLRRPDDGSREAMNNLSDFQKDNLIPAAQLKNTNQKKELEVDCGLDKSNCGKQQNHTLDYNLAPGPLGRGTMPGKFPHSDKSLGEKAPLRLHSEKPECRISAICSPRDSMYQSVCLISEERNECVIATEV

T3: recombinant human DLL1 (Alexis) (human, UniProt O00548 18-545, limits assumed)
T3 construct: also called hDLL1; rhDLL1
T3 sequence (looked up): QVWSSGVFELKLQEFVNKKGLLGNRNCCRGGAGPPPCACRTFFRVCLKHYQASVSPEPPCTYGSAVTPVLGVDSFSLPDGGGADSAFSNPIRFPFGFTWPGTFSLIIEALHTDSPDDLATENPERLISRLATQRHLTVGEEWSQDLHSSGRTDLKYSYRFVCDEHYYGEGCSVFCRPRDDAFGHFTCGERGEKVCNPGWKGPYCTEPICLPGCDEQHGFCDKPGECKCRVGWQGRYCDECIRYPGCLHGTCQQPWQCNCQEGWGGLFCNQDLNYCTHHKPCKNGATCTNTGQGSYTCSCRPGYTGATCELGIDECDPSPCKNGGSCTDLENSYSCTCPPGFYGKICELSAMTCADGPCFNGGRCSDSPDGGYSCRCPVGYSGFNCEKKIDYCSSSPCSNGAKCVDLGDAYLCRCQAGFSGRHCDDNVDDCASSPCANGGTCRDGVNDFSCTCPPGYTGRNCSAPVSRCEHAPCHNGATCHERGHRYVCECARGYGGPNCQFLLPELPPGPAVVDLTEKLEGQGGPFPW


Tests used:
human Ang2 = molecular target: T1, human Ang2; experiment: competition ELISA hAng2/hTie2-Fc
Experimental: This assay is also performed after incubation of the VHH with 0.5 μM human serum albumin.

[1] = molecular target: T4, mouse DLL4, full length, overexpressed on CHO or HEK293 cells (mouse, UniProt Q9JI71 27-686); experiment: periplasmic extract; FMAT, Notch1/Fc on CHO-mDLL4
T4 construct: whole, on cells; also called CHO-mDLL4; CHO-mDII4
Text: (§1) All calculations are based on the FL1_total signal which comprises the average of the fluorescence per well times the number of counts per well.

[2] = molecular target: T5, human DLL4, full length, overexpressed on CHO or HEK293 cells (human, UniProt Q9NR61 27-685); experiment: periplasmic extract; FMAT, Notch1/Fc on CHO-hDLL4
T5 construct: also called CHO-hDLL4; CHO-hDII4
Text: as §1

[3] = molecular target: T5, human DLL4, full length, overexpressed …; experiment: cell-based or functional assay
[4] = molecular target: T6, recombinant human DLL4 extracellular domain, C-terminally His-tagged (R&D Systems) (human, UniProt Q9NR61 25-522, biotinylated in the competition assays (sites not given)); experiment: periplasmic extract; Biacore off-rate
T6 construct: also called rhDLL4; hDLL4; not shown: C-terminal His tag

[5] = molecular target: T6, recombinant human DLL4 extracellular …; experiment: periplasmic extract; hDLL4/hNotch1 AlphaScreen
Experimental: To this mixture, the acceptor beads and the streptavidin donor beads are added and further incubated for 1 hour at room temperature. Fluorescence is measured by reading plates on the Envision Multilabel Plate reader (Perkin Elmer, Waltham, Mass., USA) using an excitation wavelength of 680 nm and an emission wavelength of 520 nm.

[6] = molecular target: T6, recombinant human DLL4 extracellular …; experiment: periplasmic extract; hDLL4 ELISA
[7] = molecular target: T7, recombinant mouse DLL4 extracellular domain, C-terminally His-tagged (R&D Systems) (mouse, UniProt Q9JI71 27-525); experiment: binding ELISA on coated rmDLL4
T7 construct: range 1-525; also called rmDLL4; mDLL4; not shown: C-terminal His tag
Experimental: In order to determine cross-reactivity to mouse DII4 a binding ELISA is performed. […] Wells are blocked with a casein solution (1% in PBS). VHHs are applied as dilution series and binding is detected using a mouse anti-myc (Roche) and an anti-mouse-AP conjugate (Sigma, St Louis, Mo., USA) (FIG. 7).

[8] = molecular target: T2, cynomolgus DLL4, full length, …; experiment: FACS titration on HEK293-cDLL4 cells
Experimental: In order to determine the cynomologus cross-reactivity of the VHHs, a FACS binding experiment is performed. Cynomolgus DII4 expressing HEK293 cells (transient or stable transfection) are used for a titration binding experiment of the VHHs. After a 30 minutes incubation on ice, all samples are washed and detection is performed by applying anti-c-myc-Alexa647 (Santa Cruz Biotechnology, Santa Cruz, Calif., USA). Human and mouse DII4 overexpressing HEK293 cells are taken as reference. The mean MCF value is determined on the FACS Array and used for calculation of the EC₅₀ value (see FIG. 9).

[9] = molecular target: T6, recombinant human DLL4 extracellular …; experiment: cell-based or functional assay
[10] = molecular target: T3, recombinant human DLL1 (Alexis); experiment: rhDLL1/rhJAG1 binding ELISA
[11] = molecular target: T8, recombinant human Jagged-1 (Alexis) (human, UniProt P78504 34-1067, limits assumed); experiment: rhDLL1/rhJAG1 binding ELISA
T8 construct: also called hJagged-1; hJAG1

T4 sequence (Q9JI71 27-686): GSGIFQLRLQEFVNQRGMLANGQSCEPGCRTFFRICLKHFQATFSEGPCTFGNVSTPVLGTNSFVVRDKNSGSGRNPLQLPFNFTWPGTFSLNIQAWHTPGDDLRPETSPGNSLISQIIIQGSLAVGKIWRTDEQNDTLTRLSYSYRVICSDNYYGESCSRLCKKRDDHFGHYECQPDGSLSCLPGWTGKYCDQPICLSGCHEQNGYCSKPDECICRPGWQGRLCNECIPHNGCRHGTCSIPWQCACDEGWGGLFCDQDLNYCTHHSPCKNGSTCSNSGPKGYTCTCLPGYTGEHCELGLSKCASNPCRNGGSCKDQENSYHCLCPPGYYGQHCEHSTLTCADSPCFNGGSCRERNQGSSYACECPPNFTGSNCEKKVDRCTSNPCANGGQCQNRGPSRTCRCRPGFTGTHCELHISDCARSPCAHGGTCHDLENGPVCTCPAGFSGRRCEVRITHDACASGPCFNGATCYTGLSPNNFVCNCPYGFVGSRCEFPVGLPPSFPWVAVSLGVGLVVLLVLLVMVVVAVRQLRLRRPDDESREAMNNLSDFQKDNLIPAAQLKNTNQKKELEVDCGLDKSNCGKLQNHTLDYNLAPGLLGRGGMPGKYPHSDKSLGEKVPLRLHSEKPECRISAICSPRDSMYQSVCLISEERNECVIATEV
T7 sequence (Q9JI71 27-525 limits assumed): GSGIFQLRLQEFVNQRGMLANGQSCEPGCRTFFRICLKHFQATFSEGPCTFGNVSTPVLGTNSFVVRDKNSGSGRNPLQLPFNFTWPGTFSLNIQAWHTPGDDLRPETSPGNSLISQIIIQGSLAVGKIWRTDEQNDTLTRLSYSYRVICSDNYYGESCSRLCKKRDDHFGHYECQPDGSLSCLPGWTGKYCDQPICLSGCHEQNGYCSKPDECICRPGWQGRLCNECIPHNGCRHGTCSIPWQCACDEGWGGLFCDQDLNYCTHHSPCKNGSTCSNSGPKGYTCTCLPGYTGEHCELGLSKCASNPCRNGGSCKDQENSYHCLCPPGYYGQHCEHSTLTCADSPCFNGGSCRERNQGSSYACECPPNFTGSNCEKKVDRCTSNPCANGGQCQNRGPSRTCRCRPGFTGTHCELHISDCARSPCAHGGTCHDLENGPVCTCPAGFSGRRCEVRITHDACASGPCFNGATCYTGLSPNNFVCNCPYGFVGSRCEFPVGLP

Binder	% inhibition [1] [%]	% inhibition [2] [%]	IC50, DLL4/Notch1 reporter assay (luciferase; co-culture with HEK293-hDII4) [3] [nM]	% inhibition [5] [%]	% inhibition [6] [%]	further results
00045 (VHH) VHH: EVQLVESGGGLVQPGGSLRLSCAASGFALDYYAIGWFRQAPGKEREGVSCISSSDGITYYADSVKGRFTISRDNSKNTVYLQMNSLRPEDTAVYYCATDSGGYIDYDCMGLGYDYWGQGTLVTVSS						IC50 (read off the curve) (human Ang2): ~0.1 nM
DLLBII62C11 (VHH, not shown: C-terminal c-myc and His6 tags) VHH: EVQLMESGGGLVQPGGSLRLSCVAAGFTFSNYYMSWVRQAPGKGLEWVSVISPDGSNTYYADTVKGRFTISRGNAKNTLFLQMTGLKSEDAAVYYCARGSGSWGVHGQGTQVTVSS	71	74	4660			
DLLBII96C03 (VHH, also called 96CO3; 96C3; not shown: C-terminal c-myc and His6 tags) VHH: EVQLVESGGGLVQPGGSLRLSCAASGFTFGNYDMSWVRQAPGKGPEWVSAINSGGGDTYYADSVKGRFTISRDNAKNTLYLQMNSLKPEDTAVYYCATPRGWGPTGPHEYGYWGQGTQVTVSS	83	75	5160			
DLLBII17G10 (VHH, not shown: C-terminal c-myc and His6 tags) VHH: EVQLVESGGGLVQAGGSLRLSCAASGSTFSSYAMGWYRHQAPGKQRELVAAISSDGSTHYADSVKGRFTISRDNAKNTMYLQMNSLKPEDTAVYYCNTKTFGSNWYDDYWGQGTQVTVSS				82	93	koff [4]: 0.0015 s⁻¹
DLLBII101G08 (VHH, also called 101G8; DLLBII101G8; not shown: C-terminal c-myc and His6 tags) VHH: EVQLVESGGGLVQAGGSLRLSCAASGRTFSSYAMAWFRQAPGKEREFVAAIRWSGGTAYYADSVQGRFTISRDNAKNTVYLQMNSLKPEDTAVYYCANRAADTRLGPYEYDYWGQGTQVTVSS	92	91	2760			EC50 (read off the curve) [8]: ~8 nM; concentration giving complete inhibition, HUVEC proliferation assay [9]: 10 µM
DLLBII104G01 (VHH, also called 104G1; DLLBII104G1; not shown: C-terminal c-myc and His6 tags) VHH: EVQLVESGGGLVQAGGSLRLSCAASGFTFDDYAIGWFRQAPGKEREGVSCISSSDGSTYYADSVKGRFTISSDNAKNTVYLQMNSLKPEDTAVYYCATAWCDSSWYRSFVGYWGQGTQVTVSS	86	94	964			concentration giving complete inhibition, HUVEC proliferation assay [9]: 10 µM
DLLBII19D10 (VHH, not shown: C-terminal c-myc and His6 tags) VHH: EVQLVESGGGLVQAGDSLRLSCAASGRTVGSYDMSWVRQGPGKEREWVSSINSGVGKTYYADSVKGRFTIFRDNAKNMVYLQMNNLKPEDTAVYYCATEMDGSRYVEGQGTQVTVSS				85	98	koff [4]: 0.0013 s⁻¹
DLLBII55D12 (VHH, not shown: C-terminal c-myc and His6 tags) VHH: EVQLVESGGGLVQPGGSLRLSCAASGFTFDDYAIGWFRQAPGKEPEGISCISSSGGITYYADSVKGRFTISRDNAKNTVYLQMNSLKPEDTAVYYCATPGIAACRGIHYTGQGTQVTVSS						binding result [8]: binds
DLLBII133G05 (VHH, not shown: C-terminal c-myc and His6 tags) VHH: EVQLVESGGGLVQPGGSLRLSCAASGFTFGSYDMSWVRRSPGKGPEWVSAINSGGGSTYYTDYVKGRFTISRDNAKNTLYLQMNSLKPEDTAVYYCAADRYIWARQGEYWGAYAYDYWGQGTQVTVSS						EC50 (read off the curve) [7]: ~0.5 nM; binding result [10]: no binding; binding result [11]: no binding
DLLBII17C01 (VHH, also called DLLBII17C1; not shown: C-terminal c-myc and His6 tags) VHH: EVQLVESGGGLVQAGGSLRLSCAASGFTFDDYPIGWLRQAPGKEREGVSCISSSDDSTYYADSVKGRFTISSNNAKNTVYLQMNSLKPEDTAVYYCAVRLFSGGCAVVAGTSWADFGSSGQGTQVTVSS				84	82	koff [4]: 0.00056 s⁻¹

Continued, in another order:

% inhibition [1] [%]	% inhibition [2] [%]	IC50, DLL4/Notch1 reporter assay (luciferase; co-culture with HEK293-hDII4) [3] [nM]	% inhibition [5] [%]	% inhibition [6] [%]	Binder	further results
			88	98	DLLBII17F10 (VHH, not shown: C-terminal c-myc and His6 tags) VHH: EVQLVESGGGLVQAGGSLRLSCASSGRTLLNYAMGWFRQAPGKEREFVSGINWSGGSTYYADSVKGRFTISRDNAENTVYLHMNSLKPEDTAVYYCAAAHDNYWFTDDSLGRGLKYWGQGTQVTVSS	binding result [7]: no binding (tested: 2.5e-7 M)
84	74	1740			DLLBII115A05 (VHH, also called 115A5; DLLBII115A5; not shown: C-terminal c-myc and His6 tags) VHH: EVQLVESGGGLVQPGGSLRLSCAASGFTFGSYDMSWVRRSPGKGPEWVSSINSGGGSTYYADFVKGRFTISRDNAKNTLYLQMNSLKPEDTAVYYCAADRYIRARQGDYWGAYEYDYWGQGTQVTVSS	concentration giving complete inhibition, HUVEC proliferation assay [9]: 10 µM
